Target: retromer (Homo sapiens, UniProt O75436)
Test: ITC

B1: DMT1-II recycling signal (peptide)
chain: AQPELYLLNTMDADSLVSR
modifications: in presence of SNX3
Kd: ~127 µM
